From patent US6610535B1, “Progenitor cells and methods and uses related thereto” (ES Cell International Pte Ltd., priority 2000, dated 2003)
Entries after “also recorded” stand apart in the source; their conditions may differ.

Assays:
[1] = system: pancreatic duct epithelial cells; experiment: PNA-FITC lectin histochemistry of pancreas; type: binding, rat
Method: Paraffin sections of adult human pancreas, adult rat pancreas, embryonic rat pancreas, or cryosections of adult mouse pancreas were used. Alternatively, Time 0 duct or cultured duct preparations from 2 week old rat pancreas were examined, with or without paraformaldehyde fixation. PNA-FITC was used usually at 1:250 dilution in PBS or DMEM/HEPES medium and incubated for 1 hr to overnight at 4° C., then washed and mounted under VectaShield mounting medium containing DAPI. Cells stained without prior fixation were post-fixed before addition of mounting medium.

T0 duct prep = experiment: PNA-FITC FACS of dispersed duct cells; type: binding, rat; conditions: by FACS analysis
Method: PNA-FITC was diluted 1:250 in sterile wash buffer (Ca++ Mg++-free PBS containing 1% FBS). Dispersed live cells (approx. 2×10^6 cells) were spun down and resuspended in 100 μl of lectin and incubated for 30-45 min at 4° C. Cells were then washed twice with sterile wash buffer, resuspended in 2 ml of Iscoveís modified DMEM containing 5% FBS, Pen/Strep, 1 mM glutamine, and held on ice until run on the FACSVantage. Standard FACS procedures were used.

B1: PNA: plant lectin that binds to galactosyl (β-1,3) N-acetyl galactosamine (protein, UniProt P02872 24-273, looked up)
Galactose-binding lectin: AETVSFNFNSFSEGNPAINFQGDVTVLSNGNIQLTNLNKVNSVGRVLYAMPVRIWSSATGNVASFLTSFSFEMKDIKDYDPADGIIFFIAPEDTQIPAGSIGGGTLGVSDTKGAGHFVGVEFDTYSNSEYNDPPTDHVGIDVNSVDSVKTVPWNSVSGAVVKVTVIYDSSTKTLSVAVTNDNGDITTIAQVVDLKAKLPERVKFGFSASGSLGGRQIHLIRSWSFTSTLITTTRRSIDNNEKKIMNMASA
[1]
  labelling of the major pancreatic duct (common bile duct, CBD): does not mark
[1]; by immunohistochemistry
  labelling of blood vessels or stromal cells: does not mark
[1]; rat
  labelling of islet cells: did NOT label; also recorded: does NOT mark
[1]; rat pancreas
  labelling of duct epithelial cells: DID label; also recorded: marks the single layer of epithelial cells
T0 duct prep
  PNA-positive fraction of T0 duct prep: 5-15%
